T1: Nonsense peptide LHDSNPYPRR
T1 construct: also called nonsense selection peptide; deselection peptide
T1 peptide: LHDSNPYPRR

T2: Elongated peptide HPIQWNAPQPS
T2 construct: also called deselection peptide
T2 peptide: HPIQWNAPQPS

T3: Truncated peptide IQWNAPQPS
T3 construct: also called deselection peptide
T3 peptide: IQWNAPQPS

T4: Coating peptide PIQWNAPQPS-K-Biotin (human)
T4 construct: also called biotin-labelled peptide
T4 peptide: PIQWNAPQPSK(Biotin)

T5: Nonsense coating peptide LHDSNPYPRR-K-Biotin
T5 peptide: LHDSNPYPRRK(Biotin)

B1: FN-ANA monoclonal antibody (mAb raised against the FN-ANA neoepitope sequence …) (antibody, mouse IgG1, kappa, V domains shown)
VH: QVQLQQSGAELVRPGASVKLSCKALGYTLTDYEMHWVKQTPVHGLEWIGAIHPGRGAAAYNQKFKDKATLTADKSSSTAYMELSSLTSEDSAVYYCTRSEEYGNYEDAMDYWGQGTSVTVSS
VL: DVVMTQTPLSLPVSLGDQASISCRSSQSLVHSNGNTYLHWFLQKPGQSPKLLIYKVSNRFSGVPDRFSGSGSGTDFTLKISRVEAEDLGVYFCSQSTHVPYTFGGGTKLEIKR
modifications: antibody labeled with HRP (site not stated)
notes: Mouse IgG1/kappa from a hybridoma, purified and HRP-labelled for the assay; also called FN-ANA mAb; FN-ANA antibody
B2: Selection peptide PIQWNAPQPS (peptide)
peptide: PIQWNAPQPS
notes: Synthetic peptide from Genscript

The target in assay [1] is T1, Nonsense peptide LHDSNPYPRR
Kind of assay: competitive ELISA, colorimetric detection (OD 450 nm), two-fold diluted peptides. The protocol:
(§1) No. 655995, Greiner Bio-one, Taufkirchen, Germany), whereafter it was incubated for 30 minutes at 20° C. with 300 RPM orbital shaking. After incubation, the plate was emptied and washed 5 times in washing buffer (consisting of 25 mM Tris, 3.0 g/L NaCl, 0.1% (w/v) Tween-20, pH 7.2). A 10-point calibration curve with 2-fold dilution was prepared from a start concentration of 200 ng/ml selection peptide ([…] (SEQ ID NO: 1)) in incubation buffer (50 mM TBS-BTB, 4.0 g/L NaCl, 0.20 g/L KCl, 5% Liquid II (cat. No. 11941836001, Roche), pH 8.0). 20 μL/well of standards, assay controls, and serum samples were added to appropriate wells in double determinations followed by the addition of 100 μL/well of 6 ng/ml of HRP-labelled mAb in incubation buffer, whereafter plates were incubated at 4° C. for 20 hours with 300 RPM orbital shaking. The following day, chemiluminescence substrate (cat. No. 11582950001, Roche Diagnostics) was prepared according to manufacturer's instructions and mixed by rotation in the dark for 20 minutes at room temperature prior to plate analysis. Following a washing step, 100 µL/well of chemiluminescence substrate was added, and the plate was incubated for a total of 3 minutes in darkness with 1 minute of 300 RPM orbital shaking before detection with luminescence on a SpectraMax i3x microplate reader (Molecular Devices, Sunnyvale CA, USA) at 1 second integration time at all wavelengths as microplate reader settings. […]
(§2) Antibody specificity was evaluated using the synthetic peptides and determined as a percentage of signal inhibition of two-fold diluted selection and deselection peptides (elongated, truncated, and nonsense) in addition to a non-sense coating (peptide details are listed in Table 1) using a colorimetric detection method with 96-well streptavidin-coated microtiter plate (cat. No. 11940279, Roche Diagnostics, Hvidovre, Denmark) and using the above procedure with the following exceptions: Instead of adding chemiluminescent substrate, the colorimetric substrate 3,3′,5,5′-tetramethylbenzidine One (cat. […]
A general note: An ELISA detects its analyte on a solid surface through an enzyme-linked reagent.

The target of assay [2] is T2, Elongated peptide HPIQWNAPQPS
The description is as above. Here is the method:
as §1, §2

For assay [3], the target named is T3, Truncated peptide IQWNAPQPS
The assay is described as above. Here is the method: as §1, §2

The target in assay [4] is B2. The experiment in a line: competitive ELISA, colorimetric detection.
In assay [5] the target is T4, Coating peptide PIQWNAPQPS-K-Biotin. The experiment in a line: competitive ELISA, colorimetric detection.
Assay [6] has as its target T5, Nonsense coating peptide …. The experiment in a line: ELISA with the nonsense coating peptide on a streptavidin plate, colorimetric detection (OD 450 nm).
The target in assay [7] is B1. The experiment in a line: competitive chemiluminescent ELISA, ten independent runs: selection peptide competes with plate-bound coating peptide …-K-biotin for HRP-labelled mAb; 20 h at 4 C. Here is the method: The final FN-ANA assay parameters were determined empirically by several optimizing experiments where various reagents, concentrations, incubation time and temperature were investigated in addition to testing reactivity to selection and deselection peptides (Table 1) and human sera. The final FN-ANA competitive ELISA procedure was conducted with chemiluminescence detection and determined as follows: 100 μL of 3 ng/ml coating peptide ([…]-K-biotin (SEQ ID NO: 5)) in coating buffer (50 mM tris-buffered saline (TBS) with 1% (w/v) bovine serum albumin, 0.1% (w/v) Tween-20, and 0.36% (v/v) Bronidox (BTB), 4 g/L NaCl, 0.20 g/L KCl, pH 8.0) was added to each well in a 96-well streptavidin-coated microtiter white plate (cat. No. 655995, Greiner Bio-one, Taufkirchen, Germany), whereafter it was incubated for 30 minutes at 20° C. with 300 RPM orbital shaking. After incubation, the plate was emptied and washed 5 times in washing buffer (consisting of 25 mM Tris, 3.0 g/L NaCl, 0.1% (w/v) Tween-20, pH 7.2). […] Following a washing step, 100 µL/well of chemiluminescence substrate was added, and the plate was incubated for a total of 3 minutes in darkness with 1 minute of 300 RPM orbital shaking before detection with luminescence on a SpectraMax i3x microplate reader (Molecular Devices, Sunnyvale CA, USA) at 1 second integration time at all wavelengths as microplate reader settings. […]

Where no end group is shown, it is not given here. The star is where a group is joined. Biotin = O=C1N[C@H]2[C@H](CS[C@H]2CCCCC(=O)*)N1

In general, IC50 refers to the concentration at which inhibition is half-maximal. Lower therefore signals higher potency.

As for B1, the binding result is on record as “no binding” in assay [1]; “no binding” in assay [2]; “no binding” in assay [3]; “binds” in assay [4]; “binds” in assay [5]; “no binding” in assay [6].
Turning to B2, the IC50 in assay [7] stood at 8.86 ng/mL.

The values above are taken from patent US20250076314A1 (NORDIC BIOSCIENCE A S, published 2025).
